This is an account of results in patent US20080221021A1, “Novel Corticotropin-Releasing Factor Receptor 1 (Crfr1) Agonist” (Max-Planck-Gesellschaft Zur Forderung Der, priority 2004, published 2008).

The target in test [1] is rat CRFR1α (rat) (UniProt P35353). Kind of test: competition binding (SPA); selectivity for rCRFR1 over mCRFR2β, reference h/rCRF.
In test [2] the target is mouse CRFR2β (mouse) (UniProt Q60748). In words: competition binding.
For test [3], the target named is rat CRFR1α (rat) (UniProt P35353). In words: competition binding.
Test [4] concerns the target mouse CRFR2β (mouse) (UniProt Q60748). In words: competition.
Test [5] concerns the target rat CRFR1α (rat) (UniProt P35353). In words: competition binding; selectivity for CRFR1 over CRFR2, reference h/rCRF; data not shown.
For test [6] the target is unchanged. Kind of test: competition binding against [125I-Tyr0]h/rCRF, SPA; reference compound 6.

Chain of mouse CRFR2β (mouse) (Q60748 20-411): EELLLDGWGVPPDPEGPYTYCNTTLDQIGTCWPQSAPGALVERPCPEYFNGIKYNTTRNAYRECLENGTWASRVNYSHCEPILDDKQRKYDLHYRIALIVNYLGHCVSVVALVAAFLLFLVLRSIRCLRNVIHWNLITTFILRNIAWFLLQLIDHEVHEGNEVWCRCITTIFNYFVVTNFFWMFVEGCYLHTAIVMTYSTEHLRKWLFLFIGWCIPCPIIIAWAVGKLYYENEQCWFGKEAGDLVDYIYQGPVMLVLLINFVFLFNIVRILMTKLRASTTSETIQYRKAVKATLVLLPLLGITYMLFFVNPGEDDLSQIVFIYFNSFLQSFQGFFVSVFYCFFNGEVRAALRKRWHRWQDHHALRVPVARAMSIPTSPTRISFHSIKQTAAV
Chain of rat CRFR1α (rat) (P35353 24-415): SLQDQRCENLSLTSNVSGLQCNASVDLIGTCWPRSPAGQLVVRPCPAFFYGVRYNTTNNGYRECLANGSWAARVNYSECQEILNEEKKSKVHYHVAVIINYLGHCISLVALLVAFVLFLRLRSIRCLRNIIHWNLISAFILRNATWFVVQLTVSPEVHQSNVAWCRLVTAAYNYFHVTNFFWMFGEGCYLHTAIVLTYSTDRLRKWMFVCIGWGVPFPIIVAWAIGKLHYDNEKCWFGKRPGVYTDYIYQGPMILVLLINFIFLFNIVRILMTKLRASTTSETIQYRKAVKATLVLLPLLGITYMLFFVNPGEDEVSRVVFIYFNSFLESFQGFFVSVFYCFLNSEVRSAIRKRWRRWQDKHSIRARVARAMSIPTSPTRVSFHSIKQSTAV
Chain of human/rat corticotropin-releasing factor (P06850 154-194): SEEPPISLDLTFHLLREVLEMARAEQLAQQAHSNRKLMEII

Turning to “ovine corticotropin-releasing factor (peptide)”, the fold higher selectivity for CRFR1 than h/rCRF with rat CRFR1α (rat) [1] was 3 fold.
As usually defined, the IC50 is the concentration that gives 50% inhibition. As for “[Svg^1-29]x[h/rCRF^31-41] (from UniProt P01144 1-29; P06850 184-194)”, the IC50 in the test with mouse CRFR2β (mouse) [2] stood at 0.98 nM; in the test with rat CRFR1α (rat) [3], 1.8 nM.
Consider “[Svg^1-12]x[h/rCRF^14-30]x[Svg^30-40] (from UniProt P01144 1-12; P06850 167-183; P01144 30-40)”, for which the IC50 with mouse CRFR2β (mouse) [2] is 700 nM; with rat CRFR1α (rat) [3] it was 9.5 nM.
With “human/rat corticotropin-releasing factor (from UniProt P06850 154-194)”, the values for the IC50 in the test with mouse CRFR2β (mouse) [4] and in the test with rat CRFR1α (rat) [3] were 42 nM and 1.6 nM, respectively.
Take “[Ala^41]h/rCRF (from UniProt P06850 154-194) (peptide)”: the fold increase in CRFR1 selectivity against h/rCRF with rat CRFR1α (rat) [5] amounted to 3 fold.
Take “[h/rCRF^1-30]x[Svg^30-40] (from UniProt P06850 154-183; P01144 30-40)”: the IC50 stood at 330 nM in the test with mouse CRFR2β (mouse) [2] and 2 nM with rat CRFR1α (rat) [3].
For the substance “[h/rCRF^1-13]x[Svg^13-29]x[h/rCRF^31-41] (from UniProt P06850 154-166; P01144 13-29; P06850 184-194)”, the figures for the IC50 in the test with mouse CRFR2β (mouse) [2] and with rat CRFR1α (rat) [3] were 0.69 nM and 0.47 nM, respectively.
With “[Ala^40] [Svg^1-12]x[h/rCRF^14-30]x[Svg^30-40] (peptide)”, the fold increase in affinity against compound 6 with rat CRFR1α (rat) [6] is > 5 fold.
